Assay results taken from patent publication US20170002084A1 (VET THERAPEUTICS, published 2017).
Read-outs that look alike come from different tables or passages of the source.

T1: Canine CD20 (canine, UniProt Q3C2E2 1-297)
T1 construct: also called recombinant canine CD20; dog CD20
T1 chain: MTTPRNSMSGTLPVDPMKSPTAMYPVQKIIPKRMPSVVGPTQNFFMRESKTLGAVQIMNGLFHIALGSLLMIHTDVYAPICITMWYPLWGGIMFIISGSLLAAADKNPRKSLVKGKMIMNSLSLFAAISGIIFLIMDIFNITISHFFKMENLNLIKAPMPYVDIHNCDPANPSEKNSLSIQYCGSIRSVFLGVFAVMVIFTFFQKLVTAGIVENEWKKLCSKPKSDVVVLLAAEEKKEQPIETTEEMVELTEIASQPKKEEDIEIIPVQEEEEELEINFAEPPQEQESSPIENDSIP

T2: Feline CD20 (feline)
T2 construct: also called recombinant feline CD20
T2 chain: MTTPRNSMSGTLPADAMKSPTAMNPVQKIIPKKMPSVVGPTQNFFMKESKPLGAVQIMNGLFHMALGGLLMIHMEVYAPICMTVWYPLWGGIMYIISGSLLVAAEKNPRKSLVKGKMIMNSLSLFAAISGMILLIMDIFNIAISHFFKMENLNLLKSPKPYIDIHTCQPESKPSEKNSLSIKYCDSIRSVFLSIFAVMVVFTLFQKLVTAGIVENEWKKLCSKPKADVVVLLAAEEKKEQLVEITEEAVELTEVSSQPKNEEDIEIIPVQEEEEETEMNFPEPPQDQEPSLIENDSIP

B1: VET 135 × VET 257 (antibody, V domains shown)
VH: EIQLQQSGAELVKPGASVKISCKASGYTFTDYYINWVKQRPGQGLEWIGKIGPGSGRTYYNEKFKGKATLTADKSSSTAYIQISSLTSEDSAVYFCAVLSWGQGTTLTVSS
VL: DVVMSQSPSSLAVSVGEKVTMSCKSSQSLLYSGNQKNYLAWYQQKPGQSPRLLIYWASTRESGVPDRFTGSGSGTDFTLTISSVKAEDLAVFYCQQYYNYPLTFGAGTKLELKG
notes: Mixed pairing: CD20-2 light chain with CD20-1 heavy chain; also called VET135 x VET257
B2: anti-canine CD20 antibody CD20-1 (antibody, V domains shown)
VH: EIQLQQSGAELVKPGASVKISCKASGYTFTDYYINWVKQRPGQGLEWIGKIGPGSGRTYYNEKFKGKATLTADKSSSTAYIQISSLTSEDSAVYFCAVLSWGQGTTLTVSS
VL: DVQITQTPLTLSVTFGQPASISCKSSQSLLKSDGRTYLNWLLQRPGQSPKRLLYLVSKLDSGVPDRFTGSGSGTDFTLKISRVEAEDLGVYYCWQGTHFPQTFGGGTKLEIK
notes: called 'recombinant anti-canine CD20 antibody'; also called Mab CD20-1
B3: VET 133 × VET 257 (antibody, V domains shown)
VH: EIQLQQSGAELVKPGASVKISCKASGYTFTDYYINWVKQRPGQGLEWIGKIGPGSGRTYYNEKFKGKATLTADKSSSTAYIQISSLTSEDSAVYFCAVLSWGQGTTLTVSS
VL: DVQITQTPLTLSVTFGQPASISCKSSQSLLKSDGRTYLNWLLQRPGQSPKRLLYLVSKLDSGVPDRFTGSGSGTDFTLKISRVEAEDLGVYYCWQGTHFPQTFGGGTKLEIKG
notes: Light chain vector VET133 co-transfected with heavy chain vector VET257 in 293F cells; mouse variable domains on canine constant domains; also called VET133 x VET257
B4: anti-canine CD20 antibody CD20-5 (VET308) (antibody, V domains shown)
VH: QVQLKQSGAELVKPGASVKISCKASGYTFTDYYINWVKQRPGQGLEWIGKIGPRSGSIYYNEKFKGKATLTADKSSSTAYMQLRSLTSEDSAVYFCAVLKWGQGTLVTVSS
VL: not shown
notes: also called Mab CD20-5
B5: anti-canine CD20 antibody CD20-6 (VET309) (antibody, V domains shown)
VH: EIQLQQSGAELVRPGASVTLSCKASGYTFTDYEMHWVKQTPVHGLEWIGGIDPETGGTAYNQKFKGKAILTADKSSSTVYMELRSLTSEDSAVYYCTRDYGTSGYWGQGTLVTVSS
VL: DVVVTQTPLSLPVSFGDQVSISCRSSQSLANSYGNTYLSWYLHKPGQSPQLLIYGISNRFSGVPDRFSGSGSGTDFTLKISRVEAEDLGVYFCSQSTHVPWTFGGGTHLTVLG
notes: also called Mab CD20-6
B6: VET 135 × VET 260 (antibody)
heavy: QVQLQQSRAELVRPGASVTLSCKPSGYTFTDYEVHWVKQTPVHGLEWIGAIDPETGGTADNQKFKGKAILTADKSSSTAYMELRSLTSEDSAVYYCTNFVDVWGTGTTVTVSSASTTAPSVFPLAPSCGSQSGSTVALACLVSGYFPEPVTVSWNSGSLTSGVHTFPSVLQSSGLYSLSSMVTVPSSRWPSETFTCNVAHPASKTKVDKPVPKRENGRVPRPPDCPKCPAPEMLGGPSVFIFPPKPKDTLLIARTPEVTCVVVDLDPEDPEVQISWFVDGKQMQTAKTQPREEQFNGTYRVVSVLPIGHQDWLKGKQFTCKVNNKALPSPIERTISKARGQAHQPSVYVLPPSREELSKNTVSLTCLIKDFFPPDIDVEWQSNGQQEPESKYRTTPPQLDEDGSYFLYSKLSVDKSRWQRGDTFICAVMHEALHNHYTQKSLSHSPGK
light: DVVMSQSPSSLAVSVGEKVTMSCKSSQSLLYSGNQKNYLAWYQQKPGQSPRLLIYWASTRESGVPDRFTGSGSGTDFTLTISSVKAEDLAVFYCQQYYNYPLTFGAGTKLELKGQPKASPSVTLFPPSSEELGANKATLVCLISDFYPSGVTVAWKADGSPITQGVETTKPSKQSNNKYAASSYLSLTPDKWKSHSSFSCLVTHEGSTVEKKVAPAECS
notes: CD20-2 variable domains on canine constant domains; light chain differs from VET305 (which has the FR4T light chain); also called VET135 x VET260
B7: anti-canine CD20 antibody CD20-2 (VET305) (antibody)
heavy: QVQLQQSRAELVRPGASVTLSCKPSGYTFTDYEVHWVKQTPVHGLEWIGAIDPETGGTADNQKFKGKAILTADKSSSTAYMELRSLTSEDSAVYYCTNFVDVWGTGTTVTVSSASTTAPSVFPLAPSCGSQSGSTVALACLVSGYFPEPVTVSWNSGSLTSGVHTFPSVLQSSGLYSLSSMVTVPSSRWPSETFTCNVAHPASKTKVDKPVPKRENGRVPRPPDCPKCPAPEMLGGPSVFIFPPKPKDTLLIARTPEVTCVVVDLDPEDPEVQISWFVDGKQMQTAKTQPREEQFNGTYRVVSVLPIGHQDWLKGKQFTCKVNNKALPSPIERTISKARGQAHQPSVYVLPPSREELSKNTVSLTCLIKDFFPPDIDVEWQSNGQQEPESKYRTTPPQLDEDGSYFLYSKLSVDKSRWQRGDTFICAVMHEALHNHYTQKSLSHSPGK
light: DVVMSQSPSSLAVSVGEKVTMSCKSSQSLLYSGNQKNYLAWYQQKPGQSPRLLIYWASTRESGVPDRFTGSGSGTDFTLTISSVKAEDLAVFYCQQYYNYPLTFGGGTHLTVLGQPKASPSVTLFPPSSEELGANKATLVCLISDFYPSGVTVAWKADGSPITQGVETTKPSKQSNNKYAASSYLSLTPDKWKSHSSFSCLVTHEGSTVEKKVAPAECS
notes: also called Mab CD20-2
B8: VET 124 × VET 237 (antibody, V domains shown)
VH: EVQLQQSVAELVRPGASVTLSCKASGYTFTDYEMHWVKQTPVHGLEWIGEIDPETGGTAYNQKFKGKAILTADKSSSTAYMELRSLTSEDSAVYYCTEYAMDYWGQGTLVTVSS
VL: not shown
notes: also called VET124 x VET237
B9: VET 133 × VET 260 (antibody, V domains shown)
VH: QVQLQQSRAELVRPGASVTLSCKPSGYTFTDYEVHWVKQTPVHGLEWIGAIDPETGGTADNQKFKGKAILTADKSSSTAYMELRSLTSEDSAVYYCTNFVDVWGTGTTVTVSS
VL: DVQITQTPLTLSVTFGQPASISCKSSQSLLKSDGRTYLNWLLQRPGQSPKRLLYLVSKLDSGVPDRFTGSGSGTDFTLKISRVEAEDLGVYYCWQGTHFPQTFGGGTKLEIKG
notes: Mixed pairing: CD20-1 light chain with CD20-2 heavy chain; also called VET133 x VET260

Tests used:
Canine CD20 [1] = biological target: T1, Canine CD20; experiment: FACS on canine PBMC, 2 µg antibody, FITC anti-dog IgG
Procedure: In the present example, the antibody variants are incubated with the CD20 positive cells and the amount of bound antibody is assessed following incubation with a fluorescent-labeled reporter reagent. The reporter is thereafter measured by FACS.
Briefly, for each assay, one million cells of Peripheral Blood Mononuclear Cell (PBMC) isolated from whole blood from a normal dog by standard techniques were resuspended in FACS buffer (PBS+2% FBS). Two μg of the primary antibody are added to the cells and the samples were incubated at 4° C. for 1 h. The primary antibody is provided as supernatants from transfected cells with recombinant antibody constructs or from purified antibody preparation. The mouse anti-dog CD21 mAb (Serotec) recognizing B-lymphocytes is added to the cells as a control to estimate the percentage of B-lymphocytes in a given sample. One ml of FACS buffer are added and cells are spun down for 3 min at 800×g in Eppendorf microcentrifuge. The cells are washed with 1 mL FACS buffer and spun down again. The secondary antibodies such as fluorescein-isothiocynate (FITC) conjugated goat anti-mouse kappa (mFITC, Jackson ImmunoResearch), or the FITC-conjugated goat anti-dog IgG (H+L) (dFITC, Bethyl Laboratories) are added in 100 μL of FACS buffer supplemented with 1% BSA to appropriate tubes and the tubes were incubated at 4° C. for 30 minutes. The wash steps are repeated. The cells are then resuspended in 500 μL FACS buffer and transferred into 12×75 mm polystyrene test tubes. The cells are analyzed by FACS with a FacScan cytometer using the CellQuest software (Becton-Dickenson). Analysis gates are set on the live lymphocyte population based on typical forward and side scatter characteristics. Several controls are utilized to determine the background fluorescence: (i) one tube of cells is incubated with the FITC-conjugated secondary antibody without the primary antibody, and (ii) one tube of cells is incubated with PBS only.
The overall percentage of B-cell subset in this sample is estimated to be approximately 12% based on the binding of the anti-dog CD21 mab control. The results of Table 3 evidence effective binding of the antibody variants to lymphocytes.

Canine CD20 [2] = biological target: T1, Canine CD20; experiment: FACS on CHO cells expressing recombinant canine CD20
Canine CD20 [3] = biological target: T1, Canine CD20; experiment: cell-based or functional assay
Canine CD20 [4] = biological target: T1, Canine CD20; experiment: FACS on HEK cells expressing recombinant canine CD20, antibody 2.5 µg/mL
Procedure: (§1) In the present example, the antibody variants (2.5 μg/mL) are incubated with mammalian cells expressing the recombinant feline CD20 or canine CD20 or control cells. The amount of bound antibody is assessed by detection with a fluorescent-labeled reporter antibody reagent. Several controls are utilized to determine the background fluorescence: (i) CD20 expressing cells are incubated with the conjugated secondary antibody with an isotype antibody, and (ii) Control cells are incubated with the anti-CD20 antibodies.
(§2) The results reported as mean fluorescence units evidence effective binding of the antibodies CD20-2, CD20-5, and CD20-6 to the recombinant canine CD20 expressed in HEK cells. Only CD20-2 and CD20-5 antibodies bind feline CD20 expressed in mammalian cells.

Canine CD20 [5] = biological target: T1, Canine CD20; experiment: FACS on CHO cells expressing recombinant canine CD20
Procedure: The antibody variants of the present invention are compared for their binding affinity to canine CD20. Binding affinity is assessed by measuring binding to the recombinant canine CD20 expressed in CHO cells by FACS analysis as described above.

Feline CD20 [6] = biological target: T2, Feline CD20; experiment: FACS on mammalian cells expressing recombinant feline CD20, antibody 2.5 µg/mL
Procedure: as §1, §2

Feline CD20 [7] = biological target: T2, Feline CD20; experiment: FACS on mammalian cells expressing recombinant feline CD20
Procedure: as §1, §2

| Binder | % Lymphocytes (Canine CD20 [1]) | Mean Fluorescence (Canine CD20 [1]) | Reduction (%) of cell proliferation of lymphoma cells (Canine CD20 [3]) | mean fluorescence units (Canine CD20 [4]) | Kd (Canine CD20 [5]) | mean fluorescence units (Feline CD20 [6]) | other results |
| --- | --- | --- | --- | --- | --- | --- | --- |
| B1 | 8.33% | 2500 | – | – | – | – | – |
| B2 | – | – | – | – | – | – | Kd (Canine CD20 [2]): 1 nM |
| B3 | 12% | 3170 | – | – | – | – | – |
| B4 | – | – | 60.1% | 2770 mean fluorescence units | 1.21 nM | 2048 mean fluorescence units | – |
| B5 | – | – | 27.6% | 2110 mean fluorescence units | 63.4 nM | 60 mean fluorescence units | binding result (Feline CD20 [7]): no binding (tested: 2.5 µg/mL) |
| B6 | 12.7% | 2660 | – | – | – | – | – |
| B7 | – | – | 55% | 2340 mean fluorescence units | 8.85 nM | 2210 mean fluorescence units | – |
| B8 | 13% | 2660 | – | – | – | – | – |
| B9 | 13.7% | 2910 | – | – | – | – | – |
